Changes are numbered by the printed parent chain.
T1: VEGF (UniProt P15692-9 27-147, limits assumed)
T1 construct: Only the selection names the 121 isoform; also called VEGF(121)
T1 sequence (looked up): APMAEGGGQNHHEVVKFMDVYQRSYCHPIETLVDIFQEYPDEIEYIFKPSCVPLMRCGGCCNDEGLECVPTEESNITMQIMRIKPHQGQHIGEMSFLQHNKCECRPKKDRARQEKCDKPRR

T2: HMGB1 (UniProt P09429 1-215, limits assumed)
T2 construct: also called biotinylated HMGB1
T2 sequence (looked up): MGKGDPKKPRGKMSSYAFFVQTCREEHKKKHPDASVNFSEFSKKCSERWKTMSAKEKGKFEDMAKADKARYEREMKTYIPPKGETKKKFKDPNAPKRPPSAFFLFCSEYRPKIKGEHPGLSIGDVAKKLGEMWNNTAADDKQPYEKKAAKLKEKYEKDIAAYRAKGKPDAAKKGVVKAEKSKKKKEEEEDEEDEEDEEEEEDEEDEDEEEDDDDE

B1: TNF-α binder R41A6 (designed binder)
chain: NVSPPRRARVTDATETTITISWEHSEDDCYSYIYYFQVDAVPANGQTPIQRTISGYETYYTITGLQPGTDYKIYLYTLNSAGFCPPYSKPVVIDAST
notes: 14FN3 variant; On phage (p3 fusion) in phage ELISA; soluble with 6xHis tag (phagemid also c-myc tag; pET-20b C-terminal hexahistidine) in ELISA and Octet
B2: TNF-α binder R3A10 (designed binder)
chain: NVSPPRRARVTDATETTITISWYPYYYYCGYHYSYFQVDAVPANGQTPIQRTIYGYYTYYTITGLQPGTDYKIYLYTLNSSDYCYYSYYPVVIDAST
B3: R1G1 anti-VEGF (designed binder)
chain: NVSPPRRARVTDATETTITIRWAGSPGPVDSFQVDAVPANGQTPIQRTIQTSETGYTITGLQPGTDYKIYLYTLNDNARSSPVVIDAST
B4: R1 D4 anti-VEGF (designed binder)
chain: NVSPPRRARVTDATETTITIPWEVAGGPIISFQVDAVPANGQTPIQRTITPDATGYTITGLQPGTDYKIYLYTLNDNARSSPVVIDAST
notes: 14FN3 variant; on phage in phage ELISA, soluble His-tagged protein in Octet
B5: R1 F1 anti-VEGF (designed binder)
chain: B4 chain with E23A, V24L, A53I, T54R
B6: TNF-α binder R4E9 (designed binder)
chain: NVSPPRRARVTDATETTITISWESYYYDCCYYIYYFQVDAVPANGQTPIQRTIYYPYTSYTITGLQPGTDYKIYLYTLNSYGYGYHYYKPVVIDAST
B7: TNF-α binder A4A9 (designed binder)
chain: NVSPPRRARVTDATETTITISWYPYYDDCGYYISYFQVDAVPANGQTPIQRTIPDSYSSYTITGLQPGTDYKIYLYTLNDADDGHPYSKPVVIDAST
B8: TNF-α binder R4A8 (designed binder)
chain: B1 chain with E23Y, H24P, D28Y, Y30G, Y32S, Y35G, S54H, Y56N, Y59S
B9: TNF-α binder R4G4 (designed binder)
chain: B1 chain with H24P, D27Y, S31Y, Y32S, S54H, G55D, Y56S, E57Y, T58N
B10: TNF-α binder R4F7 (designed binder)
chain: NVSPPRRARVTDATETTITISWYPYEYDDCYYYIYYFQVDAVPANGQTPIQRTIPDYESYYTITGLQPGTDYKIYLYTLNSYGFCPPSYKPVVIDAST
B11: R2E6 anti-HMGB1 (designed binder)
chain: NVSPPRRARVTDATETTITIRWGVAQSQVARFQVDAVPANGQTPIQRTIKRSVHTYTITGLQPGTDYKIYLYTLNDNARSSPVVIDAST
notes: 14FN3 variant; on phage in phage ELISA, soluble 6xHis-tagged in Octet
B12: R2D4 anti-HMGB1 (designed binder)
chain: B11 chain with R21S, Q26E, Q28E, A30T, V53K, T55A
notes: as for B11
B13: R2G2 anti-HMGB1 (designed binder)
chain: B11 chain with R21S, G23R, V24A, Q26E, Q28A, V29I, S52T, V53K
notes: as for B11
B14: P1E8 anti-HMGB1 (designed binder)
chain: B11 chain with R21S, G23R, V24A, Q26E, Q28A, V29I, S52T, V53K
notes: as for B11
B15: P2C6 anti-HMGB1 (designed binder)
chain: B11 chain with Q26P, A30I, T55A
notes: as for B11
B16: R2F8 anti-HMGB1 (designed binder)
chain: B11 chain with G23A, V24R, A25S, Q26A, Q28E, V29I, V53A, H54N, T55I
notes: 14FN3 variant; also called R2F8 HMGB1 FN3
B17: R2B5 anti-HMGB1 (designed binder)
chain: B11 chain with G23T, Q26E, Q28K, V29I, V53K, T55S
notes: as for B11
B18: P2F3 anti-HMGB1 (designed binder)
chain: NVSPPRRARVTDATETTITIRWGVPHSFQVDAVPANGQTPIQRTIKRGVRSYTITGLQPGTDYKIYLYTLNDNARSSPVVIDAST
notes: as for B11
B19: TNF-α binder R42C10 (designed binder)
chain: NVSPPRRARVTDATETTITISWYHHEDDCYYHFYYFQVDAVPANGQTPIQRTILHGTYTSYTITGLQPGTDYKIYLYTLNASGFCSHSYKPVVIDAST
notes: 14FN3 variant; on phage in phage ELISA, soluble 6xHis-tagged in ELISA; The short label C10 is tied to R42C10 by its name only
B20: TNF-α binder R4C5 (designed binder)
chain: NVSPPRRARVTDATETTITISWNSSYCHFYGFQVDAVPANGQTPIQRTISDYEYSYTITGLQPGTDYKIYLYTLNASCYGYHYYKPVVIDAST
notes: 14FN3 variant; on phage in phage ELISA, soluble 6xHis-tagged in ELISA; The short label C5 is tied to R4C5 by its name only
B21: A6+Fc (Fc fusion)
chain: B1 chain
notes: Expressed in E. coli BL-21(DE3); also called R41A6 Fc fusion protein; pET-20b+TNF A6+Fc #39; not shown: C-terminal hexahistidine tag of pET-20b

What follows are binders tested against T3, TNF-α (UniProt P01375 77-233, biotinylated) (assay: Octet BLI, biotinylated TNF-α on streptavidin tips; lower end of the range).
T3 construct: also called TNF-alpha; biotintylated TNF-α soluble protein
T3 sequence (P01375 77-233 limits assumed): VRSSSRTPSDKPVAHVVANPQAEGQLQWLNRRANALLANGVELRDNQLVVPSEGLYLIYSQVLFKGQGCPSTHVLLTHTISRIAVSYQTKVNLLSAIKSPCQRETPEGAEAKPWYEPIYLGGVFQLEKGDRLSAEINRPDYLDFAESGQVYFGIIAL
Experimental: (§1) The target protein was biotintylated TNF-α soluble protein (R&D Systems) and is at a concentration of 0.25 ug/ml for loading onto the streptavidin sensor tips. […] The Octet was run using the manufacturers protocol for Basic Kinetic Assay.
B1 was tested, and the Kd was ≥ 20 nM.

What follows are binders tested against T3, TNF-α (assay: Octet BLI, biotinylated TNF-α on streptavidin tips; upper end of the range).
Experimental: as §1
With B1 the Kd was ≤ 100 nM.

Each binder was assayed against T3, TNF-α (assay: phage display selection and ELISA).
B2: binds.

What follows are binders tested against T3, TNF-α (assay: phage ELISA (OD450); wells with VEGF, TNF alfa or 2%MPBS only).
B3: no binding. B4: no binding. B5: no binding.

The binders below were run against T3, TNF-α (assay: phage ELISA; wells with TNF, control or VEGF).
Experimental: (§2) After the third and fourth rounds of selection, a total of 373 clones were analyzed for TNF-α binding using phage ELISA. Briefly, phage from individual clones was produced by co-infection with M13K07 helper phage in 1 ml cultures in 96-deep well blocks. Phage-containing culture supernatants were then added to microtiter plates coated with the target protein. Following washes with PBS-0.1% Tween-20, bound phage was detected with a mouse anti-M13 antibody horseradish peroxidase conjugate (GE Biosciences) and TMB substrate (Pierce). Positive variants were then screened for binding specificity against VEG-F and nuetravidin plate only.
B6: binds. B7: binds. B8: binds. B9: binds. B10: binds.

What follows are binders tested against T1, VEGF (assay: phage ELISA; wells with TNF, control or VEGF).
Experimental: as §2
B6: no binding. B7: no binding. B8: no binding. B9: no binding. B10: no binding.

Each binder was assayed against T3, TNF-α (assay: ELISA (OD450); wells with HMGB1, TNF or blank).
B11: no binding. B12: no binding. B13: no binding.

The binders below were run against T2, HMGB1 (assay: Octet BLI).
With B14 the Kd was 192 nM, the koff was 0.000325 s⁻¹ and the kon was 1690 M⁻¹ s⁻¹. B15 showed a Kd of 104 nM, a koff of 0.000991 s⁻¹ and a kon of 9540 M⁻¹ s⁻¹. B11 showed a Kd of 189 nM, a koff of 0.000955 s⁻¹ and a kon of 5040 M⁻¹ s⁻¹. Work on B12 yielded a Kd of 159 nM, a koff of 0.000206 s⁻¹ and a kon of 1300 M⁻¹ s⁻¹. Binder B16 has a Kd of 35.3 nM, a koff of 0.000267 s⁻¹ and a kon of 7580 M⁻¹ s⁻¹. With B17 the Kd was 65.8 nM, the koff was 0.000287 s⁻¹ and the kon was 4350 M⁻¹ s⁻¹. Work on B13 yielded a Kd of 266 nM, a koff of 0.00049 s⁻¹ and a kon of 1840 M⁻¹ s⁻¹. In the case of B18, the koff is reported as 0.000271 s⁻¹.

Each binder was assayed against T1, VEGF (assay: ELISA with purified soluble 14FN3 variant, OD450, one concentration (not given)).
B19: no binding. B1: no binding. B20: no binding.

What follows are binders tested against T3, TNF-α (assay: Octet BLI, biotinylated TNF-α on streptavidin tips).
Experimental: as §1
In the case of B21, the Kd is reported as 12 to 25 nM and the “fold improvement of Koff against monomeric A6” value is reported as 2 fold.

These binders were tested against T2, HMGB1 (assay: competition ELISA: biotinylated HMGB1 pre-incubated with R2F8, then bound to immobilized RAGE (blocked ligand-receptor pair HMGB1/RAGE), detected with streptavidin-HRP and TMB).
B16 was tested, and the “IC50 (read off the curve)” value was ~8 µg/mL.

These binders were tested against T1, VEGF (assay: Octet BLI, soluble protein).
Work on B4 yielded a koff of 0.00017 s⁻¹.

What follows are binders tested against T1, VEGF (assay: phage ELISA).
B2: no binding.
